The source of these data is PMC12284214, “Structural basis for the activity regulation of Medicago calcium channel CNGC15” (Cell Discovery, 2025).

The series concerns the molecule itself. In words: cryo-EM structure; MtCNGC15b alone, in 25 mM Tris pH 8.0, 150 mM NaCl, 0.006% GDN; 3.1 Å; also with 5 mM cGMP (no structural change).

B1: Medicago truncatula CNGC15b (natural protein, M. truncatula, UniProt G7JND3 1-620, looked up)
chain: MVTPKFMSDLFEGDHLELAKLTSPNGDNGIKFNEKHVAPRVLSRVFSEDYKRVKRRRRIFDPRGQTIHQWNKIFLVACLISLFVDPLFFYLPIVQDEVCIDIGIAVEVFLIIIRSIADVFYVIHIFMRFHTAYVAPSSRVFGRGELVIDSSKIASRYLHKGFFLDFIAALPLPQVLIWIVIPNLGGSTIANTKNVLRFIIIIQYLPRLFLIFPLSSQIVKATGVVTETAWAGAAYNLMLYMLASHVLGACWYLLSIERQEACWKSVCKLEESSCQFDFFDCNMVKDSLRVSWFVTSNVTNLCSPNSLFYQFGIYGDAVTSKVTTSAFFNKYFFCLWWGLRNLSSLGQGLLTSTFVGEIMFAIVIATLGLVLFALLIGNMQTYLQSTTVRLEEWRVKRTDTEQWMHHRQLPQELRQSVRKYDQYKWIATRGVDEESLLRGLPLDLRRDIKRHLCLELVRRVPLFDAMDERMLDAICERLKPALCTENTYLVREGDPVNEMLFIIRGNLDSYTTDGGRTGFFNSCRIGPGDFCGEELLTWALDPRPTMVIPSSTRTVKAISEVEAFALIAEDLKFVASQFRRLHSKQLRNKLRFHSHQWRTWAACFIQVAWRRTIQEKKGSC
notes: residues 58-385 were modelled in the apo map; In the functional rows the protein was made from cRNA in Xenopus oocytes with that signal peptide; also called MtCNGC15b; MtCNGC15; source: HEK293F, transfected; purified (anti-Flag M2, Strep-Tactin, SEC) in GDN; not shown: Flag, C-terminal, kept; TwinStrep, C-terminal, kept
As for B1, the binding result is “binds”.
